Kd and pH7.4/pH6 data for one substance are collected here from patent US20160272706A1.

In assay [1] the target is cynomolgus monkey FcRn (cynomolgus monkey) (UniProt Q8SPV9). Briefly: SPR (BIAcore 3000), IgG immobilised on CM5, FcRn injected at pH 6, steady-state 1:1 fit.
Assay [2] has as its target human FcRn protein (human) (UniProt P55899). Described as above.
For assay [3], the target named is cynomolgus monkey FcRn (cynomolgus monkey) (UniProt Q8SPV9). Briefly: SPR (BIAcore 3000), IgG immobilised on CM5, FcRn injected; binding at pH 7.4 as a percentage of that at pH 6.
The target of assay [4] is human FcRn protein (human) (UniProt P55899). Described as above.
Chain of human FcRn protein (human) (P55899 24-290 limits assumed, chain 1 of 2): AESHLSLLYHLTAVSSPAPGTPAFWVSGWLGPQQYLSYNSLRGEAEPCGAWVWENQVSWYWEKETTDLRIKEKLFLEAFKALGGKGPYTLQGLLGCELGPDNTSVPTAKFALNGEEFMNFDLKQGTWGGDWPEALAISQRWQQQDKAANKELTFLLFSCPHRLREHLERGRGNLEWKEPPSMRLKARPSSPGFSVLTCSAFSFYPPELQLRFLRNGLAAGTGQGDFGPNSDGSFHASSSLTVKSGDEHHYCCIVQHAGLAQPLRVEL
Chain of human FcRn protein (human) (P61769 21-119 limits assumed, chain 2 of 2, further chain): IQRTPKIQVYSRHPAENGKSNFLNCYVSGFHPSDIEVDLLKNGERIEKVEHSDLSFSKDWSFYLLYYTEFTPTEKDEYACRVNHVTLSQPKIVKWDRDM

Chain of cynomolgus monkey FcRn (cynomolgus monkey) (Q8SPV9 24-290 limits assumed, chain 1 of 2): as the sequence (P55899 24-290 limits assumed, chain 1 of 2) above, with N39D, E44Q, G99S, S189G, S190N, L217M counted along it
Chain of cynomolgus monkey FcRn (cynomolgus monkey) (Q8SPW0 21-119 limits assumed, chain 2 of 2, further chain): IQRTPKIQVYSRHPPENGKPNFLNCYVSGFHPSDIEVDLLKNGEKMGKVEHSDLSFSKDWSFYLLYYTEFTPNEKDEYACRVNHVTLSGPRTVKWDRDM

As for NIP228 (antibody), the Kd in assay [1] was found to be 1860 nM; in assay [2], 2040 nM. The pH7.4/pH6 in assay [3] and in assay [4] was 1% in each case.

As usually defined, the Kd is the concentration at which binding is half-saturated.
